Source: the Human Domainome abundance scans (Beltran et al. 2025)

B1: RUN and FYVE domain-containing protein 1, residues 639 to 698; numbered along this chain, Q96T51 (parent)
chain: WLKDDEATHCRQCEKEFSISRRKHHCRNCGHIFCNTCSSNELALPSYPKPVRVCDSCHTL

Variants of: B1
Assay: abundance fitness (aPCA) (normalised: wild type 0, dead -1); higher = more abundant; growth selection in yeast, the domain comes from the species named
Conditions: Homo sapiens

Abundance fitness of substitutions, site by site:
L44: D 0.138; R -0.445; V -0.236; M -0.077; W -0.375; Q -0.3; K -0.384; H -0.295; T -0.127; N -0.388; Y -0.271; P -0.326; S -0.454; C -0.389; E -0.376; G -0.166; A -0.3; F -0.196
P48: I -0.419; E 0.118; K -0.178; F -0.818; R -0.308; Y -0.582; W -0.484; Q -0.051; N -0.324; A -0.167; H -0.192; M -0.309
N40: K 0.078; A -0.163; E -0.172; T -0.08; R 0.153; P -0.387; D -0.382; S -0.004; M -0.021; C -0.933; H -0.067; Y -0.906; L -0.424; Q -0.001; G -0.03; I -0.223; W -0.85
C34: L -0.708; H -0.44; F -0.853; W -0.736; T -0.612; I -0.71; Y -0.682; G -0.608; K -0.493; V -0.496; P -0.633; N -0.709; R -0.642; M -0.398; A -0.659; S -0.758; D -0.577; Q -0.542
G30: V -0.764; R -0.428; F -0.945; S -0.503; C -0.453; W -0.235; E -0.239; D -0.414; K -1.17; N -1.04; P -0.754; H -0.428; M -0.264; Q -0.326; Y -0.56; A -0.392; T -0.77
Y47: L -0.069; P -0.433; H 0.09; V -0.026; S -0.081; W -0.382; F -0.05; G -0.045; M -0.134; Q -0.14; R -0.345; D 0; A 0.014; N 0.019; I -0.197; E -0.062; K -0.262
N35: T 0.22; P 0.233; F -0.064; A 0.341; D 0.324; G 0.436; Q 0.173; W 0.088; V 0.255; I 0.047; H 0.178; S 0.23; R 0.172; E 0.331; K 0.183; L 0.215; C 0.237; M 0.191
H31: E -0.277; N -0.237; S -0.225; F 0.027; I -0.113; M -0.113; G 0.08; T -0.423; V -0.626; D -0.126; Q -0.019; Y -0.106; C -0.445; P -0.711; A -0.204; L -0.012; K -0.143; W -0.017; R -0.142
T36: S 0.214; F 0.208; P 0.202; R 0.351; H 0.287; L 0.3; A 0.349; Q 0.403; V 0.342; K 0.254; N 0.276; G 0.444; D 0.401; Y 0.177; I 0.083; W 0.168
S39: F -0.305; P -0.251; C -1.14; E 0.079; W -0.657; Q 0.091; A 0.14; Y -0.428; I -0.229; G 0.185; R -0.011; D 0.128; T 0.084; L -0.102; H -0.421
